According to the supplement of paper PMC10065799, “High-throughput profiling of sequence recognition by tyrosine kinases and SH2 domains using bacterial peptide display” (eLife, 2023):

Target: EPHB1 (UniProt P54762)
Assay: phosphorylation enrichment, bacterial display (enrichment ratio); higher = better substrate or ligand; peptides without Tyr show the background
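Wherever SH2 binding enrichment of the phosphorylated peptide, bacterial display is given: peptide library displayed on the E. coli surface as eCPX fusions, selected cells deep-sequenced, score is each peptide's frequency after selection divided by its frequency in the input.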
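Wherever phosphorylation enrichment, bacterial display is given: 11-residue human phosphosite peptides and single-mutation variants displayed on the E. coli surface, counted by deep sequencing, each peptide's frequency after selection divided by its frequency in the unselected input library; frequency after pTyr selection over input frequency; kinase dosed for 20-30% of maximal phosphorylation in three min.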

Sequence of EPHB1 (P54762 whole entry, looked up): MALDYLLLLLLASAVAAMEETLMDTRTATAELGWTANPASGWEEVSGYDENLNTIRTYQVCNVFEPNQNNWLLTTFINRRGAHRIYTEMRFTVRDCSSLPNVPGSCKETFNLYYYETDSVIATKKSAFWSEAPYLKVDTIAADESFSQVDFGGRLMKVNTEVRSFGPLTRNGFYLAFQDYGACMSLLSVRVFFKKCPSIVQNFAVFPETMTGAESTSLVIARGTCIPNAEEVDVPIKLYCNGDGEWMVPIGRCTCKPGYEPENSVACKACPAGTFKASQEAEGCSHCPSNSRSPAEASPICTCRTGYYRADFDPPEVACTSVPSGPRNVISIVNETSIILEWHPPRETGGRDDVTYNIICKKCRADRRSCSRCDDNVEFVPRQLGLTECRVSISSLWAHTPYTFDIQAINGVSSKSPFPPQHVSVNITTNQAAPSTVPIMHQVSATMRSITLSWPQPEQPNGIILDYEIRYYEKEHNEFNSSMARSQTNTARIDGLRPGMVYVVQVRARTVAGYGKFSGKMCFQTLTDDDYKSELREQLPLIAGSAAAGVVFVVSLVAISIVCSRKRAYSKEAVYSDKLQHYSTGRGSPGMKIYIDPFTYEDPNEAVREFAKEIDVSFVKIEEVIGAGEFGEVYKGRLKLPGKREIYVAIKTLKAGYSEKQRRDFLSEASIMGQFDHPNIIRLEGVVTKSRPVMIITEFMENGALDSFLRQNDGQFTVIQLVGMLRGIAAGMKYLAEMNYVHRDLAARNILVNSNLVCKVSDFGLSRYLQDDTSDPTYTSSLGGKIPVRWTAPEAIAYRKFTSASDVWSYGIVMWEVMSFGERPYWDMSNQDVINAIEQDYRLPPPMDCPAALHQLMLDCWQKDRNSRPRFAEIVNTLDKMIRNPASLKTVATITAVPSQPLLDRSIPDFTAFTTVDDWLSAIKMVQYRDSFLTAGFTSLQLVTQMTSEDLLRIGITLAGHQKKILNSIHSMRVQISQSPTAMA

Sequence | phosphorylation enrichment
SIVEDYRPPFY [ACVRL1_Y421_G416S] | 0.785
TLKVGYKEKQR [EPHA3_Y659_T660K] | 0.45
CTTIHYTFMCN [TP53_Y234_N235T_YF] | 0.562
SRDTCYLVLAV [AMH_Y195_R194C] | 0.719
QGRQTYLPQPA [DDR2_Y813] | 0.527
DRFDNYIEKVR [DES_Y122_A120D] | 0.348
GDYYCYLAEVA [YWHAG_Y133_R132C] | 13
VVTFSYKPAGN [RBL2_Y544_P547A] | 0.418
IMAYFYMCDRA [CASD1_Y382] | 0.803
PTTKTYFLHFD [HBA1_Y43_P45L] | 1.34
GLRYGYGGLGG [KRTAP20-2_Y15_V17G] | 0.349
YGPPQYNMQYS [ERBB2IP_Y977_I979M] | 0.472
DEFLEHRRIVG [FAM221A_Y20_Y20H_YF] | 0.447
RRIEKYVDQGK [IRAK3_Y61_H57R] | 0.615
LNLDTYQKRLR [PLA2G2D_Y126_R121L] | 0.44
QFFQSYFNNNF [ZNF236_Y644] | 0.981
CEHRGYLYLAI [TEK_Y897] | 0.664

Sequence | phosphorylation enrichment
GRDQPYSGAGD [TYRO3_Y828] | 0.293
LDYNEYVRDLN [HPRT1_Y198_F199V] | 0.761
LGSNTYPFLLM [SAG_Y120_T125M] | 0.835
YADGVYLALEE [DUOX2_Y70_Q71L] | 1.82
CKPGFYNLKEK [LAMA1_Y490] | 0.543
VEGISYDFIPT [CBS_Y308_G307S] | 0.578
GLAELYEFQKK [CKAP5_Y1854_K1857Q_YF] | 0.59
SWKRRYFLLRA [APBB1IP_Y331] | 0.595
FSGKAYADEER [CRIM1_Y826] | 0.565
QADVIYVNTQL [MERTK_Y872] | 2.52
QEIATYRRLRE [KRT17_Y384_L388R] | 0.64
TPGPNYRPGFN [USH2A_Y463_YF] | 0.531
IVFTSYVLTIL [TAS2R16_Y239_F240V] | 0.884
REVPVYTDSEP [FAM120B_Y368] | 0.965
PADRAYSWFQH [NDST1_Y711_YF] | 0.543
FRTGHYLCNAC [GATA1_Y223_D218Y_YF] | 0.479

Target: SHP2-C SH2
Assay: SH2 binding enrichment of the phosphorylated peptide, bacterial display (enrichment ratio); higher = better substrate or ligand; peptides without Tyr show the background

Sequence | SH2 binding enrichment
SIVEDYRPPFY [ACVRL1_Y421_G416S] | 0.622
TLKVGYKEKQR [EPHA3_Y659_T660K] | 1.14
SRDTCYLVLAV [AMH_Y195_R194C] | 0.616
QGRQTYLPQPA [DDR2_Y813] | 0.44
DRFDNYIEKVR [DES_Y122_A120D] | 0.596
IMAYFYMCDRA [CASD1_Y382] | 1.02
PTTKTYFLHFD [HBA1_Y43_P45L] | 1.35
YGPPQYNMQYS [ERBB2IP_Y977_I979M] | 0.661
DEFLEHRRIVG [FAM221A_Y20_Y20H_YF] | 0.574
YADGVYLALEE [DUOX2_Y70_Q71L] | 0.679
VEGISYDFIPT [CBS_Y308_G307S] | 0.633
GLAELYEFQKK [CKAP5_Y1854_K1857Q_YF] | 0.473
SWKRRYFLLRA [APBB1IP_Y331] | 0.689
FSGKAYADEER [CRIM1_Y826] | 0.748
REVPVYTDSEP [FAM120B_Y368] | 0.351
FRTGHYLCNAC [GATA1_Y223_D218Y_YF] | 1.07

Second part, the sequence after the results:

SH2 binding enrichment | Sequence
3.21 | CTTIHYTFMCN [TP53_Y234_N235T_YF]
0.862 | GDYYCYLAEVA [YWHAG_Y133_R132C]
0.984 | VVTFSYKPAGN [RBL2_Y544_P547A]
0.557 | GLRYGYGGLGG [KRTAP20-2_Y15_V17G]
0.333 | RRIEKYVDQGK [IRAK3_Y61_H57R]
0.63 | LNLDTYQKRLR [PLA2G2D_Y126_R121L]
1.02 | QFFQSYFNNNF [ZNF236_Y644]
0.761 | CEHRGYLYLAI [TEK_Y897]
0.86 | GRDQPYSGAGD [TYRO3_Y828]
1.03 | LDYNEYVRDLN [HPRT1_Y198_F199V]
0.435 | LGSNTYPFLLM [SAG_Y120_T125M]
0.769 | CKPGFYNLKEK [LAMA1_Y490]
0.699 | QADVIYVNTQL [MERTK_Y872]
0.478 | QEIATYRRLRE [KRT17_Y384_L388R]
0.505 | TPGPNYRPGFN [USH2A_Y463_YF]
0.641 | IVFTSYVLTIL [TAS2R16_Y239_F240V]
0.572 | PADRAYSWFQH [NDST1_Y711_YF]

Target: Grb2 SH2 (UniProt P62993)
Assay: as above

Sequence | SH2 binding enrichment
SIVEDYRPPFY [ACVRL1_Y421_G416S] | 0.599
TLKVGYKEKQR [EPHA3_Y659_T660K] | 0.919
SRDTCYLVLAV [AMH_Y195_R194C] | 0.752
QGRQTYLPQPA [DDR2_Y813] | 0.627
DRFDNYIEKVR [DES_Y122_A120D] | 0.836
IMAYFYMCDRA [CASD1_Y382] | 1.14
PTTKTYFLHFD [HBA1_Y43_P45L] | 1.36
YGPPQYNMQYS [ERBB2IP_Y977_I979M] | 0.849
DEFLEHRRIVG [FAM221A_Y20_Y20H_YF] | 0.813
YADGVYLALEE [DUOX2_Y70_Q71L] | 0.83
VEGISYDFIPT [CBS_Y308_G307S] | 0.654
GLAELYEFQKK [CKAP5_Y1854_K1857Q_YF] | 0.666
SWKRRYFLLRA [APBB1IP_Y331] | 0.639
FSGKAYADEER [CRIM1_Y826] | 1
REVPVYTDSEP [FAM120B_Y368] | 0.986
FRTGHYLCNAC [GATA1_Y223_D218Y_YF] | 1.14

More lines, now with the values ahead:

SH2 binding enrichment | Sequence
1.83 | CTTIHYTFMCN [TP53_Y234_N235T_YF]
0.851 | GDYYCYLAEVA [YWHAG_Y133_R132C]
0.999 | VVTFSYKPAGN [RBL2_Y544_P547A]
0.826 | GLRYGYGGLGG [KRTAP20-2_Y15_V17G]
0.72 | RRIEKYVDQGK [IRAK3_Y61_H57R]
0.797 | LNLDTYQKRLR [PLA2G2D_Y126_R121L]
1.57 | QFFQSYFNNNF [ZNF236_Y644]
1.21 | CEHRGYLYLAI [TEK_Y897]
0.894 | GRDQPYSGAGD [TYRO3_Y828]
0.795 | LDYNEYVRDLN [HPRT1_Y198_F199V]
0.808 | LGSNTYPFLLM [SAG_Y120_T125M]
1.06 | CKPGFYNLKEK [LAMA1_Y490]
1.26 | QADVIYVNTQL [MERTK_Y872]
0.75 | QEIATYRRLRE [KRT17_Y384_L388R]
0.776 | TPGPNYRPGFN [USH2A_Y463_YF]
1.04 | IVFTSYVLTIL [TAS2R16_Y239_F240V]
0.949 | PADRAYSWFQH [NDST1_Y711_YF]

Target: c-Src SH2
Assay: as above

Sequence | SH2 binding enrichment
SIVEDYRPPFY [ACVRL1_Y421_G416S] | 0.462
TLKVGYKEKQR [EPHA3_Y659_T660K] | 1.02
SRDTCYLVLAV [AMH_Y195_R194C] | 0.453
QGRQTYLPQPA [DDR2_Y813] | 0.553
DRFDNYIEKVR [DES_Y122_A120D] | 0.507
IMAYFYMCDRA [CASD1_Y382] | 0.87
PTTKTYFLHFD [HBA1_Y43_P45L] | 0.985
YGPPQYNMQYS [ERBB2IP_Y977_I979M] | 0.434
DEFLEHRRIVG [FAM221A_Y20_Y20H_YF] | 0.531
YADGVYLALEE [DUOX2_Y70_Q71L] | 0.869
VEGISYDFIPT [CBS_Y308_G307S] | 2.11
GLAELYEFQKK [CKAP5_Y1854_K1857Q_YF] | 0.795
SWKRRYFLLRA [APBB1IP_Y331] | 0.394
FSGKAYADEER [CRIM1_Y826] | 0.515
REVPVYTDSEP [FAM120B_Y368] | 0.911
FRTGHYLCNAC [GATA1_Y223_D218Y_YF] | 0.743

The next lines start with the values.

SH2 binding enrichment | Sequence
1.85 | CTTIHYTFMCN [TP53_Y234_N235T_YF]
0.681 | GDYYCYLAEVA [YWHAG_Y133_R132C]
0.685 | VVTFSYKPAGN [RBL2_Y544_P547A]
0.568 | GLRYGYGGLGG [KRTAP20-2_Y15_V17G]
0.535 | RRIEKYVDQGK [IRAK3_Y61_H57R]
0.39 | LNLDTYQKRLR [PLA2G2D_Y126_R121L]
0.755 | QFFQSYFNNNF [ZNF236_Y644]
0.741 | CEHRGYLYLAI [TEK_Y897]
0.567 | GRDQPYSGAGD [TYRO3_Y828]
0.757 | LDYNEYVRDLN [HPRT1_Y198_F199V]
0.427 | LGSNTYPFLLM [SAG_Y120_T125M]
0.611 | CKPGFYNLKEK [LAMA1_Y490]
0.608 | QADVIYVNTQL [MERTK_Y872]
0.441 | QEIATYRRLRE [KRT17_Y384_L388R]
0.416 | TPGPNYRPGFN [USH2A_Y463_YF]
0.806 | IVFTSYVLTIL [TAS2R16_Y239_F240V]
0.976 | PADRAYSWFQH [NDST1_Y711_YF]
